± gives the uncertainty stated by the source.
Assay: protein stability index of a GFP-peptide fusion (yeast GPS) (PSI 1-4); higher = more stable; sorted into four equal gates, so the index is relative within each strain
How it was run: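 Each library plasmid carries Cherry plus GFP with a tiled 17-residue yeast protein peptide fused downstream, and the pooled library was carried in yeast. Mid-log cultures in leucine-free medium were sorted into four equal gates by GFP/Cherry ratio. Reads from Illumina sequencing of PCR-amplified plasmids from each gate were assigned to strains by barcodes. Per peptide, the protein stability index was computed as the summed products of gate read frequency and gate number.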

Sequence | protein stability index (doa10∆) | protein stability index (pdr5∆) | protein stability index (san1∆) | protein stability index (ubr1∆)
STTEHINIDDLLYELTA [YJL039C/NUP192] | 2.82 ± 0.11 | 2.61 ± 0.092 | 2.43 ± 0.099 | 3.05 ± 0.053
STTQEILEFITAAQVAN [RPC34] | 2.65 ± 0.1 | 1.71 ± 0.056 | 1.9 ± 0.088 | 1.19 ± 0.048
STVAKNVSFVLPDEKSD [YCG1] | 3.2 ± 0.058 | 3.16 ± 0.037 | 3.09 ± 0.041 | 3.01 ± 0.038
STVASALDTNGTSATTE [SIR4] | 2.2 ± 0.075 | 2.15 ± 0.065 | 2.91 ± 0.064 | 1.88 ± 0.045
STVKGSVDLEKLAFGLT [TAF14] | 3.58 ± 0.13 | 3.45 ± 0.091 | 3.61 ± 0.057 | 3.67 ± 0.072
STVSANHSNNDIPTIAD [BRN1] | 3.22 ± 0.097 | 3.03 ± 0.093 | 3.02 ± 0.069 | 3.24 ± 0.074
SVAEVFQKAQGSYAGHR [YCG1] | 1.9 ± 0.11 | 1.38 ± 0.18 | 1.65 ± 0.24 | 1.5 ± 0.072
SVDIGVETILSGKARIC [FAS2] | 2.7 ± 0.12 | 2.75 ± 0.11 | 1.8 ± 0.12 | 2.78 ± 0.069
SVDITGGPWFTDGELDI [RPC34] | 3.04 ± 0.14 | 3.43 ± 0.12 | 3.12 ± 0.13 | 3.18 ± 0.078
SVDKKVDSGEERNEQER [SWI3] | 3.53 ± 0.092 | 3.35 ± 0.14 | 3.25 ± 0.11 | 3.54 ± 0.077
SVDMSALKDPQTDADRV [RIP1] | 3.27 ± 0.079 | 3.68 ± 0.23 | 3.2 ± 0.23 | 3.56 ± 0.15
SVEAYLVSLFEDTNLAA [HHT1] |  | 2.86 ± 0.26 | 2.59 ± 0.15 | 3.06 ± 0.14
SVFDATSDPVMHKQLAY [RPN1] | 2.28 ± 0.11 | 2.17 ± 0.077 | 1.79 ± 0.14 | 1.96 ± 0.082
SVFNAELLKLLNDEYNY [YCS4] | 1.76 ± 0.053 | 2.31 ± 0.062 | 1.95 ± 0.095 | 2.47 ± 0.04
SVGTDPMPIITFLSEWG [RPB2] | 2.7 ± 0.1 | 1.99 ± 0.057 | 1.57 ± 0.094 | 2.22 ± 0.062
SVIPLKGRYAPETGDHV [RRP4] | 2.53 ± 0.059 | 2.52 ± 0.052 | 2.67 ± 0.073 | 2.69 ± 0.041
SVIVKFHSEPDRDENWI [LIN1] | 2.69 ± 0.072 | 3.08 ± 0.071 | 2.96 ± 0.056 | 2.75 ± 0.044
SVKKAGASINSMKANTS [ARP7] | 2.07 ± 0.052 | 2.46 ± 0.05 | 2.42 ± 0.054 | 2.25 ± 0.037
SVKLDLQDDEDHKFPIR [BRN1] | 2.99 ± 0.18 | 2.88 ± 0.098 | 2.76 ± 0.14 | 2.22 ± 0.17
SVKLKQKRLEAGALNLA [DIS3] | 3.42 ± 0.13 | 3.11 ± 0.12 | 3.36 ± 0.081 | 3 ± 0.071
SVLHSWVQLVQIIVTDG [YJL039C/NUP192] | 1.58 ± 0.049 | 1.98 ± 0.056 | 1.28 ± 0.085 | 1.54 ± 0.055
SVLISIPLDNYDDFIYL [PCI8] | 1.25 ± 0.048 | 1.75 ± 0.055 | 1.28 ± 0.11 | 1.52 ± 0.042
SVLQLFQSVQLNINNPN [SMC2] | 1.88 ± 0.049 | 1.89 ± 0.045 | 1.68 ± 0.058 | 1.48 ± 0.04
SVLSSKPGSKPEKTSTE [SIR3] | 3.17 ± 0.12 | 2.7 ± 0.19 | 3.15 ± 0.078 | 3.2 ± 0.12
SVLYPDELEDDTLNETN [RRP43] | 3 ± 0.082 | 3.08 ± 0.071 | 3.19 ± 0.08 | 3.11 ± 0.062
SVNKNKRQAYAVSEKAG [RPL4A] |  | 1.69 ± 0.17 |  | 3.29 ± 0.13
SVPIWVDTSTELESMLE [RRP6] | 3.07 ± 0.12 | 3.28 ± 0.16 | 3.06 ± 0.063 | 2.96 ± 0.085

From the supplement of paper PMC9732359
